{"source": "patent US20150087055A1", "about": "“ANALOG AND MIXED-SIGNAL COMPUTATION AND CIRCUITS IN LIVING CELLS” (MASSACHUSETTS INSTITUTE OF TECHNOLOGY, priority 2012, published 2015)", "molecules": {"B1": {"name": "LuxR: quorum-sensing transcriptional activator induced by AHL, activates promoter Plux (protein, UniProt P12746 1-250, looked up)", "Transcriptional activator …": "MKNINADDTYRIINKIKACRSNNDINQCLSDMTKMVHCEYYLLAIIYPHSMVKSDISILDNYPKKWRQYYDDANLIKYDPIVDYSNSNHSPINWNIFENNAVNKKSPNVIKEAKTSGLITGFSFPIHTANNGFGMLSFAHSEKDNYIDSLFLHACMNIPLIVPSLVDNYRKINIANNKSNNDLTKREKECLAWACEGKSSWDISKILGCSERTVTFHLTNAQMKLNTTNRCQSISKAILTGAIDCPYFKN"}}, "test_system": "Plux promoter", "test": "LuxR/Plux circuit characterization by flow cytometry (AHL transfer functions)", "format": "cell-based, E. coli", "conditions": "no AHL, IPTG=10 mM, GFP, MG1655 Pro cells (FIG. 19C)", "procedure": "Overnight cultures of E. coli strains were grown from glycerol freezer stocks at 37° C. 300 rpm in 3 mL of Luria-Bertani (LB)-Miller medium (Fisher #BP1426-2), with appropriate antibiotics: carbenicillin (50 μg/ml), kanamycin (30 μg/ml), chloramphenicol (25 μg/ml). The inducers used were arabinose, isopropyl-β-D-1-thiogalactopyranoside, and AHL 3OC6HSL (Sigma-Aldrich #K3007-10MG). Where appropriate, COPYCONTROL^24 from Epicentre (Madison, Wis.) was added to overnight cultures at 1× active concentration. Overnight cultures were diluted 1:100 into 3 mL fresh LB and antibiotics and were incubated at 37° C. 300 rpm for 20 minutes. […]\nCells were then diluted 4-fold into a new 96-well plate containing fresh 1×PBS and immediately assayed using a BD LSRFORTESSA-HTS. At least 50,000 events were recorded for all data, which was then gated by forward scatter and side scatter using CYFLOGIC v.1.2.1 software (CyFlo, Turku, Finland). The geometric means of the gated fluorescence distributions were calculated by Matlab. Fluorescence values are based on geometric means of flow cytometry populations from three experiments and the error bars represent standard errors of the mean.\nFor each experiment, fluorescence readings were taken on a BioTek Synergy H1 Microplate reader using BioTek Gen5 software to determine the minimum and maximum expression level for cultures in each 96-well plate. […]", "data": [{"molecule": "B1", "values": [{"measurement": "repression of the Plux promoter in the absence of AHL", "result": "no repression"}]}]}
